# Measured values as given in the FLAb antibody collection (doi:10.7554/elife.23156).
# B1: scFv; the commonest letter at each place (parent)
# chain 1: EVKLDETGGGLVQPGRPMKLSCVASGFTFSDYWMNWVRQSPEKGLEWVAQIRNKPYNYETYYSDSVKGRFTISRDDSKSSVYLQMNNLRVEDMGIYYCTGSYYGMDYWGQGTSVTVS
# chain 2: DVVMTQTPLSLPVSLGDQASISCRSSQSLVHSNGNTYLRWYLQKPGQSPKVLIYKVSNRFSGVPDRFSGSGSGTDFTLKISRVEAEDLGVYFCSQSTHVPWTFGGGTKLEIK
# Columns and labels:
# fluorescein = variants of: B1; experiment: Kd (Tite-Seq); conditions: with fluorescein; format: scFv 4-4-20, heavy + light
# [1] = variants of: B1; experiment: yeast surface expression (ratio to wild type); higher = more expressed; conditions: format: scFv 4-4-20, heavy + light
Kd (fluorescein) [µM],Variant,yeast surface expression [1]
≥ 10,chain 1 T28A Y32V,1.32
≥ 10,chain 1 Y102H G104F W108Y,0.283
≥ 10,chain 1 G104F G109W,0.0981
≥ 10,chain 1 M105S Y107W,0.826
≥ 10,chain 1 W33E M34W,0.966
≥ 10,chain 1 S101K D106V,0.257
≥ 10,chain 1 F29S N35H,0.836
≥ 10,chain 1 T28E S30I W33I,0.628
≥ 10,chain 1 G104D W108T,0.417
≥ 10,chain 1 G109I,0.269
≥ 10,chain 1 W33Q W36V,0.361
≥ 10,chain 1 D31P V37W,0.565
≥ 10,chain 1 G100I S101G D106C,0.777
0.00128,chain 1 S30F V37M,0.669
≥ 10,chain 1 F29I D31E Y32T,0.84
≥ 10,chain 1 Y107S W108S,0.484
≥ 10,chain 1 G100V Y102P M105N,0.63
≥ 10,chain 1 Y32I N35P,0.0981
≥ 10,chain 1 M34H V37W,0.602
≥ 10,chain 1 M34H V37P,0.3
≥ 10,chain 1 G104Q M105C,0.62
≥ 10,chain 1 M105F G109L,0.369
≥ 10,chain 1 M105P D106E,0.7
≥ 10,chain 1 S101C G104C,0.33

Kd (fluorescein) [µM],Variant,yeast surface expression [1]
≥ 10,chain 1 W33M W36P,0.591
≥ 10,chain 1 Y102N G104I,0.859
≥ 10,chain 1 W33T N35D V37W,0.582
≥ 10,chain 1 M105G G109S,0.794
≥ 10,chain 1 T28I W33K,0.617
≥ 10,chain 1 G100D D106Q,0.17
≥ 10,chain 1 F29C S30C,0.693
≤ 0.000316,chain 1 Y102C W108I,0.7
≥ 10,chain 1 G100T M105W,0.733
≥ 10,chain 1 G104K G109F,0.282
≥ 10,chain 1 N35L W36R,0.352
≥ 10,chain 1 F29E,0.778
3.74,chain 1 F29H,0.884
≥ 10,chain 1 F29I W33M V37P,0.444
≥ 10,chain 1 S30D D31G W33A,0.663
≥ 10,chain 1 W36L V37Q,0.537
≥ 10,chain 1 D31C W33P,0.671
0.0592,chain 1 W36K V37N,0.168
≥ 10,chain 1 G100P G109A,0.3
0.004,chain 1 S30H W36F,0.728
≥ 10,chain 1 Y103M G104M M105L,0.562
≥ 10,chain 1 Y103G G109T,0.68
0.345,chain 1 G104I D106N G109F,0.094
0.0221,chain 1 Y103E W108C,0.758

Kd (fluorescein) [µM],Variant,yeast surface expression [1]
≥ 10,chain 1 Y103I G109V,0.222
≥ 10,chain 1 G100M G104P D106I,0.361
≥ 10,chain 1 T28H M34H V37R,2.76
0.00104,chain 1 T28C S30K,0.943
≥ 10,chain 1 D31E W36H,0.658
≥ 10,chain 1 S30I W36V V37Q,0.525
≥ 10,chain 1 G100N G104Y,0.185
≥ 10,chain 1 S101I Y103P M105E,0.462
≥ 10,chain 1 N35A,0.902
≥ 10,chain 1 N35Q,0.814
≥ 10,chain 1 N35F,0.708
≥ 10,chain 1 S30Y N35C,0.686
≥ 10,chain 1 W33I,0.854
≥ 10,chain 1 W33N,1.01
≥ 10,chain 1 W33C,0.827
≥ 10,chain 1 M105V Y107A,0.758
≥ 10,chain 1 M105V Y107H,0.957
≥ 10,chain 1 W33Q N35E,0.594
≥ 10,chain 1 G100L Y102W,0.497
≥ 10,chain 1 Y32S W33S,0.838
≥ 10,chain 1 S30F N35C,0.555
≥ 10,chain 1 D31F W33I,0.487
≥ 10,chain 1 S101E G104S,0.804
≥ 10,chain 1 D31C M34P,0.56

Kd (fluorescein) [µM],Variant,yeast surface expression [1]
≥ 10,chain 1 Y32S N35E V37Q,0.677
≥ 10,chain 1 G104T Y107P,0.313
≥ 10,chain 1 G104F Y107Q,0.401
≥ 10,chain 1 F29T M34K,0.35
≥ 10,chain 1 S30R W36G,0.171
≥ 10,chain 1 S101R G104T,0.647
0.00215,chain 1 Y107T W108A,0.476
0.0107,chain 1 S30M V37E,0.721
≥ 10,chain 1 T28Y N35S,0.691
≥ 10,chain 1 F29M D31Y W33Q,0.811
≥ 10,chain 1 Y102L G109M,0.185
≥ 10,chain 1 S101Y,0.659
≥ 10,chain 1 S101F,0.596
≥ 10,chain 1 S101R,0.731
≥ 10,chain 1 S101W,0.618
≥ 10,chain 1 G100W D106F,0.18
≥ 10,chain 1 G100W D106C,0.437
≥ 10,chain 1 T28R S30L D31S,0.198
≥ 10,chain 1 F29P Y32I M34L,0.858
≥ 10,chain 1 G100F S101M,0.704
5.96,chain 1 Y102W M105E,1.02
≥ 10,chain 1 M34I W36Q,0.283
≥ 10,chain 1 M34I W36K,0.24
≥ 10,chain 1 Y107I W108S,0.786

Kd (fluorescein) [µM],Variant,yeast surface expression [1]
0.00606,chain 1 V37T,0.626
0.0434,chain 1 V37A,0.784
3.55,chain 1 V37K,0.351
≥ 10,chain 1 G104K W108Q,0.294
≥ 10,chain 1 Y103N G104T Y107K,0.619
0.0944,chain 1 Y102W Y107S,0.557
0.021,chain 1 N35W V37G,1.18
≥ 10,chain 1 T28I N35R,0.849
≥ 10,chain 1 G100V S101M,0.712
≥ 10,chain 1 Y32F W33Q,1.23
≥ 10,chain 1 M105N Y107I,1.2
≥ 10,chain 1 G100W Y107D G109L,0.227
≥ 10,chain 1 Y107N G109P,0.28
≥ 10,chain 1 F29Y Y32R,0.761
≥ 10,chain 1 D106W Y107F,0.264
0.000479,chain 1 Y102F W108T,0.854
≥ 10,chain 1 S30H D31L,0.608
≥ 10,chain 1 S30L W33D,0.844
≥ 10,chain 1 D31A N35T V37S,0.281
0.021,chain 1 Y102K,0.81
